The target of assay [1] is human platelet membrane glycoprotein (GP)IIb/IIIa on human platelets (platelet rich plasma) (human, UniProt P08514 32-1039; P05106 27-788).
In assay [2] the target is canine platelet (GP)IIb/IIIa on canine platelets (platelet rich plasma) (canine, UniProt Q9TUN8 32-1036; A0A8I3PMU9 158-919).
Assay [3] concerns the target binding sites on unactivated human platelets. Put plainly: Scatchard analysis of CN binding to unactivated human platelets.

A word on the IC50: it is the concentration needed to halve the response being measured. By Kd is commonly meant a measure of binding affinity in units of concentration. A low value points to higher affinity.

B1: contortrostatin (CN), native homodimer purified from Agkistrodon contortrix contortrix venom (ligand)
chain: DAPANPCCDAATCKLTTGSQCADGLCCDQCKFMKEGTVCRRARGDDLDDYCNGISAGCPRNPFHA
On to B1, for which the IC50 was found to be 0.4 mg/L in assay [1] and 0.24 mg/L in assay [2]. Moreover, the Kd in assay [3] came out at 0.037 µM.

Values taken from EP1117419B1 (The University Of Southern California, dated 2010).
